Sequences and labels used below:
B2: Hsp72 phosphomimetic T636E tracer FITC-Ahx-GSGPEIEEVD (peptide)
peptide: GSGPEIEEVD-OH
modifications: not fully specified (N-terminus); printed as FITC-Ahx-GSGPEIEEVD
notes: last 10 residues of Hsp72/HSPA1A with the P6 Thr changed to Glu; also called T636E Hsp72 fluorescent tracer; P6 Thr to Glu; source: synthetic peptide, bought: GenScript

Holding throughout (conditions): both partners purified
The target in experiment [1] is T1, DnaJB4 (recombinant, human, full length, wild type) (human, UniProt Q9UDY4 1-337).
T1 construct: DnaJB4, human, full length; Expressed from pMCSG7 with a TEV site; also called WT DnaJB4; Class B JDP; source: E. coli BL21 (DE3) Rosetta, purified (Ni-NTA, TEV cleavage, SEC); not shown: His6, N-terminal, cleaved
T1 sequence (Q9UDY4 whole entry): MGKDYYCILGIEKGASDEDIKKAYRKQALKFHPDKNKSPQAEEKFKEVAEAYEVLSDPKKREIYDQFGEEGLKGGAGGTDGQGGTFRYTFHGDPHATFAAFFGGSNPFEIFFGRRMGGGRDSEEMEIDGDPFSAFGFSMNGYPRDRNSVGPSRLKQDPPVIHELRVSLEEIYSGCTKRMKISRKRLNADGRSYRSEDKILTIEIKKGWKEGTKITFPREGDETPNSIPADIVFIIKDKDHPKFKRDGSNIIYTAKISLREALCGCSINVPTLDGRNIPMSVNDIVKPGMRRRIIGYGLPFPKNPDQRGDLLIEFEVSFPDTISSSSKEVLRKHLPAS
Put plainly: fluorescence polarisation; competition: 100 µM unlabeled peptide, 5 µM DnaJB4, 20 nM Hsp72 tracer in JDP binding buffer; room temperature, 30 min; tracer displacement relative to DMSO control. (In general: In fluorescence polarisation assays a small probe gives low polarisation when free and higher when bound to something large.)

Experiment [2] deals with T1, DnaJB4 (recombinant, human, full …). Put plainly: fluorescence polarisation; saturation binding: 20 nM Hsp72 tracer with DnaJB4 (WT or QPD) 110 to 0.013 µM in 2X dilutions; 50 mM Tris, 15 mM NaCl, 1 mM DTT, 0.01% Triton X-100, pH 8.0; room temperature, 30 min.
The target in experiment [3] is B2. Description: fluorescence polarisation; saturation binding: 20 nM Hsp72 tracer with CHIP 110 to 0.013 µM in 2X dilutions; 50 mM HEPES, 50 mM KCl, 0.01% Triton X-100, pH 7.4; room temperature, 30 min.

Where “and” joins values, the source holds several entries; their conditions need not be identical. Identical values can stand only once. Where no end group is shown, it is not given here. The star is where a group is joined. FITC = O=C1OC2(c3ccc(O)cc3Oc3cc(O)ccc32)c2ccc(NC(=S)*)cc21; Ahx = NCCCCCC(=O)O

B1: Hsp72 10-mer peptide with the P5 Ile replaced by Met (peptide, UniProt P0DMV8 632-641, looked up)
peptide: Ac-GSGPTMEEVD-OH
notes: also called P5 Ile to Met mutant; source: synthetic peptide, bought: GenScript
Consider B1, for which the binding result in experiment [1] is listed as “binds”.
Regarding B2, the binding result in experiment [2] is “binds”.

B3: CHIP (recombinant human) (natural protein, UniProt Q9UNE7 1-303, looked up)
chain: MKGKEEKEGGARLGAGGGSPEKSPSAQELKEQGNRLFVGRKYPEAAACYGRAITRNPLVAVYYTNRALCYLKMQQHEQALADCRRALELDGQSVKAHFFLGQCQLEMESYDEAIANLQRAYSLAKEQRLNFGDDIPSALRIAKKKRWNSIEERRIHQESELHSYLSRLIAAERERELEECQRNHEGDEDDSHVRAQQACIEAKHDKYMADMDELFSQVDEKRKKRDIPDYLCGKISFELMREPCITPSGITYDRKDIEEHLQRVGHFDPVTRSPLTQEQLIPNLAMKEVIDAFISENGWVEDY
notes: CHIP, human; also called E3 ubiquitin ligase CHIP; TPR domain co-chaperone; source: E. coli BL21(DE3), purified (Ni-NTA, TEV cleavage, SEC); not shown: His6, N-terminal, cleaved
Regarding B3, in experiment [3], the “fold weakening of the affinity against the WT tracer” value was found to be 5 fold.

B4: Hsp72 C-terminal 7-mer peptide PTIEEVD (peptide)
peptide: Ac-PTIEEVD-OH
notes: last 7 residues of Hsp72/HSPA1A; also called last 7 amino acids of Hsp70's C-terminus; source: synthetic peptide, bought: GenScript
Regarding B4, the binding result in experiment [1] is on record as “binds”.

B5: Hsp72 tracer FITC-Ahx-GSGPTIEEVD (peptide)
peptide: {FITC-Ahx}-GSGPTIEEVD-OH
modifications: not fully specified; printed as FITC-Ahx-GSGPTIEEVD
notes: last 10 residues of Hsp72/HSPA1A; also called EEVD tracer; fluorescent Hsp72 peptide; source: synthetic peptide, bought: GenScript
For orientation: Kd means the concentration at which binding is half-saturated. B5: the Kd in experiment [2] was 1910 nM and 1690 nM.

The record behind these values is doi:10.1101/2021.10.18.464838, “Two distinct classes of co-chaperones compete for the EEVD motif in heat shock protein 70 (Hsp70) to tune its activity” (bioRxiv, 2021).
